{"source": "patent US11892449B2", "about": "“Therapeutics and point of care lateral-flow test for virus and antibodies using tagged assembled proteins” (priority 2021, dated 2024)", "molecules": {"B1": {"name": "H-MAP-2 (protein)", "chain": "MRGSPKKKRKVGGGGSHHHHHHHHGSACELAATATATATATATAACGDLAPQMLRELQETNAALQDVRELLRQQVKEITFLKNTLLEIWKAAKEAAKEAAAKIEEQAKTFLDKFNGEELLRALDQVN"}, "B2": {"name": "HIF1α-MAP-1 (protein)", "chain": "MRGSHHHHHHGSACELAATATATATATATAACGDLAPQMLRELQETNAALQDVRELLRQQVKEITFLKNTLLEIWKAAKEAAKEAAAKIEEQAKTFLDKFNGEELLRALDQVN"}}, "key": {"p300": {"molecular_target": "p300", "test": "ELISA binding to p300, total binding kinetics", "conditions": "for Kd: ELISA, average of three independent trials", "excerpt": "FIG. 21. H-MAP1 (H-MAP) and H-MAP2 ELISA fitted with total binding kinetics using Prism 7 (GraphPad) with calculated binding affinities as an average of three independent trials."}, "HIF1α": {"test_system": "HIF1α", "test": "Hypoxia-inducible luciferase reporter in MDA-MB-231 cells", "format": "cell-based", "conditions": "MDA-MB-231-Luciferase cells, hypoxia induced with 100 μM CoCl2, increasing concentrations", "excerpt": "FIG. 22. […] Results are normalized to maximum luciferase intensity of two independent trials.\nWe will further characterize the HIF1α-MAP1 and iterative HIF1α-MAP designs as described in the following section. For example, to increase the likelihood of translocation to the nucleus, HIF1α-MAP-2 (H-MAP-2) was designed by addition of nuclear localization sequence, PKKKRKV (SEQ ID NO:7), at the N-terminus. […] To test the ability of HIF1α-MAPs to modulate hypoxia-inducible signaling, HIF1α-MAP-2 was incubated with triple negative breast cancer cell line, MDA-MB-231, stably transfected a construct to express firefly luciferase under normoxic and hypoxic (induced with final concentration 100 μM CoCl2) conditions."}}}
{"molecule": "native HIF1α [reference compound]", "values": [{"measurement": "Kd", "setting": "p300", "result": 0.38, "unit": "nM"}]}
{"molecule": "B1", "values": [{"measurement": "expression of luciferase (hypoxia-inducible gene expression)", "setting": "HIF1α", "result": "inhibitions of HIF1α"}, {"measurement": "expression of luciferase (hypoxia-inducible gene expression)", "setting": "HIF1α; listed as HIF1α-MAP-2", "result": "decreased expression of luciferase"}, {"measurement": "Kd", "setting": "p300", "result": 0.0382, "unit": "nM"}]}
{"molecule": "B2", "values": [{"measurement": "Kd", "setting": "p300", "result": 0.00808, "unit": "nM"}, {"measurement": "fold improvement in comparison to native HIF1α", "setting": "p300; binding to p300", "result": 47, "unit": "fold"}]}
